Data as given in PMC7738837, “Synthesis and evaluation of ^68Ga-labeled dimeric cNGR peptide for PET imaging of CD13 expression with ovarian cancer xenograft” (Journal of Cancer, 2021).
Read-outs that look alike come from different tables or passages of the source. Positions of bridges follow the written chain, without caps; N, C: chain ends. Non-standard residues stand in square brackets, D forms with d. Residues, ends and D or L forms follow the SMILES beside them. Chains are numbered I, II in the order given. *: point of attachment. DOTA = O=C(O)CN1CCN(CC(=O)O)CCN(CC(=O)*)CCN(CC(=O)O)CC1; PEG4 = NCCOCCOCCOCCOCCC(=O)O

Assays:
[1] = MicroPET imaging and blocking, ES2 tumor-bearing nude mice; details: female, BALB/c nude, mouse, in vivo, iv, total radioactivity
Experimental: (§1) The human OVCA ES2 and SKOV3 cells were obtained from Nanjing Keygen Biotech Co., Ltd. (Nanjing, China). ES2 cells were maintained as monolayer cultures in McCoy's medium 5A supplemented with 10% fetal bovine serum (FBS), and SKOV3 cells were cultured in RPMI-1640 medium supplemented with 10% FBS. Both cell lines were incubated at 37°C in a humidified atmosphere containing 5% CO2. Cells in log phase were harvested by trypsinization, washed with PBS twice and adjusted to 5×10^7/mL in PBS. A volume of 0.1 mL single-cell suspension was subcutaneously injected into the front flank of each female […] nude mouse (~4-6 weeks old, body weight of 18-25 g; Slac Laboratory Animal, Shanghai, China). Animal models were used for PET imaging experiments when xenografts grew to 500-1,000 mm^3. All animal-related studies were approved by the Institutional Animal Care and Use Committee of Soochow University.
(§2) Two groups of female Balb/c nude mice (n=6/group) bearing ES2 tumors were used to conduct static microPET imaging with an Inveon microPET scanner (Siemens Medical Solutions, Erlangen, Germany). The first group was injected with 7.4 MBq ^68Ga-DOTA-c(NGR)2 via tail vein under anesthesia with 1%-2% isoflurane, and a series of static image data, 10 min for each time point, were collected at 30 min, 1, 1.5, and 2 h post injection. For blocking studies, the second group of mice was injected with 100 μg unlabeled peptide in 100 μL saline via tail vein, immediately followed by administration of ^68Ga-DOTA-c(NGR)2, and then images were acquired at 30 min, 1, 1.5 and 2 h post-injection, each for 10 min. The obtained images were processed using Siemens Inveon Research Workplace 4.0 (IRW 4.0) and reconstructed using three-dimensional ordered-subset expectation maximization. Regions of interest (ROIs) were drawn over the tumor (T) and muscle of the contralateral forelimb, and the latter served as the background (B). Moreover, %ID/g of tumors and the T/B ratio were determined. The same studies were repeated in female Balb/c nude mice bearing SKOV3 tumors without the blocking experiments.

SKOV3 cells = test: In vitro cell binding/uptake assay, SKOV3 cells; format: cell-based, human; details: 37 KBq per well, 1×10^6 cells/well, 37°C, time points 5 min to 2 h, gamma counter, mean ± SD
in vivo [2] = details: ICR, mouse, iv, 3.7 MBq, total radioactivity
Experimental: (§3) Biodistribution studies were performed using 30 normal ICR (Institute of Cancer Research) mice (18-30 g; age, 4 weeks). […] The blood, muscle and other organs of interest (brain, heart, liver, lungs, spleen, pancreas, kidneys, stomach, small intestine and femur) were immediately harvested, weighed and counted with a gamma counter. Data were normalized to the time of injection and expressed as percent injected dose per gram (% ID/g).

[3] = In vitro stability in saline/PBS at room temperature (radiochemical purity); format: physicochemical; details: ~3.7 MBq tracer in saline (method: PBS), 3 h of incubation, radio-HPLC
Experimental: A volume of 80 μL 1 mol/L HEPES (pH 5.0) was added to 200 μL ^68GaCl3 (37-74 MBq) eluent, and then the mixture was incubated with 40 μL DOTA-c(NGR)2 stock solution in a water bath at 95°C for 10 min. Quality control was performed by radio-HPLC (Agilent Technologies, Santa Clara, CA, USA) with a VP-ODS C18 column (Shimadzu, Kyoto, Japan) and an online radioactivity detector (Zonkia Scientific Instruments Co., Ltd., Anhui Province, China). The mobile phase was composed of solvent A, 0.1% trifluoroacetic acid (TFA) in water, and solvent B, 0.1% TFA in acetronitrile. The flow rate was set at 1 mL/min, and the UV wavelength was set at 220 nm. The mobile phase was gradiently changed from 20% solvent B to 30% solvent B in 20 min.
To evaluate the in vitro stability, ~3.7 MBq of ^68Ga-DOTA-c(NGR)2 was incubated in phosphate-buffered saline (PBS) at room temperature or bovine serum at 37 °C, respectively. The radiochemical purity was determined at time points of 30 min and 1, 2 and 3 h.

ES2 cells = test: In vitro cell binding/uptake assay, ES2 cells; format: cell-based, human; details: 37 KBq per well, 37°C
in vivo [4] = details: female, BALB/c nude, mouse, iv, 7.4 MBq, total radioactivity
Experimental: as §1, §2

Experimental for normal ICR mice: as §3

N=C(N)NCCC[C@@H]1NC(=O)CNC(=O)[C@H](CC(N)=O)NC(=O)[C@@H](NC(=O)CCOCCOCCOCCOCCNC(=O)CC[C@H](NC(=O)CCOCCOCCOCCOCCNC(=O)CN2CCN(CC(=O)O)CCN(CC(=O)O)CCN(CC(=O)O)CC2)C(=O)NCCOCCOCCOCCOCCC(=O)N[C@H]2CSSC[C@@H](C(=O)N[C@@H](Cc3ccc(O)cc3)C(=O)O)NC(=O)[C@H](CCCNC(=N)N)NC(=O)CNC(=O)[C@H](CC(N)=O)NC2=O)CSSC[C@@H](C(=O)N[C@@H](Cc2ccc(O)cc2)C(=O)O)NC1=O [^68Ga-DOTA-c(NGR)2, metal not drawn] (I: {DOTA-PEG4}-E[PEG4]CNGRCY-OH / II: [PEG4]CNGRCY-OH; amide I:1-II:N; disulfide I:3-I:7, II:2-II:6)
tissue uptake at 1 h ([1]; 7.4 MBq): 0.62 ± 0.09 %ID/g
tissue uptake at 1.5 h ([1]; 7.4 MBq): 0.53 ± 0.08 %ID/g
tissue to tissue ratio at 1 h [1]: 10.3 ± 0.26
tissue to tissue ratio at 1.5 h [1]: 8.04 ± 1.75
tissue uptake at 1 h ([1]; microPET, 100 μg unlabeled peptide i.v. immediately before tracer, 1 h post-injection, n=6, mean ± SD, read-out: uptake in ES2 tumors in the blocking experiment): 0.16 ± 0.03 %ID/g
tissue uptake at 1.5 h ([1]; microPET, 100 μg unlabeled peptide i.v. immediately before tracer, 1.5 h post-injection, n=6, mean ± SD, read-out: uptake in ES2 tumors in the blocking experiment): 0.14 ± 0.02 %ID/g
highest binding to SKOV3 cells (SKOV3 cells): 1.79% ± 0.34
tissue uptake at 5 min (in vivo [2]; blood): 7.44 ± 1.64 %ID/g
tissue uptake at 1 h (in vivo [2]; blood): 0.31 ± 0.05 %ID/g
tissue uptake at 5 min (in vivo [2]; kidney): 16.7 ± 5.8 %ID/g
decrease of kidney uptake from peak (normal ICR mice; 30 min post-injection versus 5 min): more than 50%
decrease of kidney uptake from peak (normal ICR mice; 120 min post-injection versus 5 min): > 85%
radiochemical purity after incubation in saline [3]: > 96%
highest binding to ES2 cells (ES2 cells; 1×10^6 cells/well, after 2 h of incubation, gamma counter, mean ± SD): 3.00% ± 0.59
time to almost saturated binding to ES2 cells (ES2 cells): ≤ 30 min
tissue to tissue ratio at 1 h (in vivo [4]): 3.99 ± 0.18
tissue to tissue ratio at 1.5 h (in vivo [4]): 4.24 ± 0.73
tissue uptake at 1 h (in vivo [4]): 0.32 ± 0.03 %ID/g
tissue uptake at 1.5 h (in vivo [4]): 0.24 ± 0.05 %ID/g
